Assay [1] concerns the target T1, interaction between SNX9 and Rv3364c (Homo sapiens, UniProt Q9Y5X1).
T1 construct: different regions 1-595, 1-250, 250-361, and 392-595 of SNX9; host or cells: 293 / HEK293T
The format is cell-based.

Assay [2] has as its target T2, interaction between YEATS4 and Rv3364c (Homo sapiens, UniProt O95619).
T2 construct: host or cells: 293 / HEK293T
The format is cell-based.

For assay [3], the target named is T3, interaction between SNX9 and p47phox (Homo sapiens, UniProt Q9Y5X1).
T3 construct: different regions 1-595, 1-250, 250-361, and 392-595 of SNX9; p47phox plasmid as in Biomaterials 2016, 89, 1-13; host or cells: HEK293T
T3 sequence (Q9Y5X1 whole entry): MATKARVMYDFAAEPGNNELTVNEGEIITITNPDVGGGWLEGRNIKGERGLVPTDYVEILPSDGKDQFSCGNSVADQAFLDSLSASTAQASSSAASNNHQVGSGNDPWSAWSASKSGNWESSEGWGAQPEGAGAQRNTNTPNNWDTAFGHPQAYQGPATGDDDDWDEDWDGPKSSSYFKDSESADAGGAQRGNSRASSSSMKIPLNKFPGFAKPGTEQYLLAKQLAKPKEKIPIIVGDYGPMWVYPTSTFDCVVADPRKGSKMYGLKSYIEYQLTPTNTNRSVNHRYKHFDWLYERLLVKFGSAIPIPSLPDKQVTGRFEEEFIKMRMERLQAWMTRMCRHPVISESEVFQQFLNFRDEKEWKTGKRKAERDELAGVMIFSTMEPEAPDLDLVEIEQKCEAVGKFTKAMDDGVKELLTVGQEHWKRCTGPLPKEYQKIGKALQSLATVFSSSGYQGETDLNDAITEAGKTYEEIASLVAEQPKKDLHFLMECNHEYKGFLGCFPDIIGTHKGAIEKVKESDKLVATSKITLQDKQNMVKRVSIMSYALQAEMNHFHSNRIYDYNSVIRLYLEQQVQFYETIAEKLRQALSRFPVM
The format is cell-based. As to conditions: HEK293T cells, Flag-Rv3364c 1, 5, 10 μg, 12 hours.

Assay [4] concerns the target endogenous YEATS4 of mouse macrophages (BMDM, Raw264.7) (mouse, UniProt Q9CR11 1-227). The assay is described as follows: anti-His co-IP from BMDM treated with 1 ug/ml rRv3364c, anti-YEATS4 blot.
The target in assay [5] is T4, endogenous EGFLAM of mouse macrophages (BMDM) (mouse, UniProt Q4VBE4 25-1017).
T4 sequence: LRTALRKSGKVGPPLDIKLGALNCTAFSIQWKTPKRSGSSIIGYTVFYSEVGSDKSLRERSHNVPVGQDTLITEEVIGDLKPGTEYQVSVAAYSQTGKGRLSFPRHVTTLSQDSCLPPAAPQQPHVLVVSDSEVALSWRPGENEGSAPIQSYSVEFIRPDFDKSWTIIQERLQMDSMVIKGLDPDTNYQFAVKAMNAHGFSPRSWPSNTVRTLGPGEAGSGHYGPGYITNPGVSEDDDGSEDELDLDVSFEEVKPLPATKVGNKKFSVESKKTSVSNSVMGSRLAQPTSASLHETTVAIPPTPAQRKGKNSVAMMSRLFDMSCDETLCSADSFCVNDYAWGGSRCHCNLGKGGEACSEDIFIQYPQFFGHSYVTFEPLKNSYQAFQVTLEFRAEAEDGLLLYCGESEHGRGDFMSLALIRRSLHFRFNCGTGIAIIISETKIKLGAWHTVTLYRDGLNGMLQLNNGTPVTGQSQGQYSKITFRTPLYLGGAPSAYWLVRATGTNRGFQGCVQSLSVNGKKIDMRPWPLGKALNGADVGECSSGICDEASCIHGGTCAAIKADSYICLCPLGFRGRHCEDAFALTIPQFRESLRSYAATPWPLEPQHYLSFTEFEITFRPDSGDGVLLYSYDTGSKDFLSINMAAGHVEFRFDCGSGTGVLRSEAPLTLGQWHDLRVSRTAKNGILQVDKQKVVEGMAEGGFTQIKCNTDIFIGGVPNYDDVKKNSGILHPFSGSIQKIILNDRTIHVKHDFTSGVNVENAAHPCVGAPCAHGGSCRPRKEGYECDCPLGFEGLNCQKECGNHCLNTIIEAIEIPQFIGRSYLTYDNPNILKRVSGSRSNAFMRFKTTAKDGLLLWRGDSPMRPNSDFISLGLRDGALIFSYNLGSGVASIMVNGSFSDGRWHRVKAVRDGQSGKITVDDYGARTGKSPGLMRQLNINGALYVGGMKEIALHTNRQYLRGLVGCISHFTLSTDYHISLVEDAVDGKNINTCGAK
Description: anti-His co-IP from BMDM treated with rRv3364c, anti-EGFLAM blot.

Assay [6] concerns the target T5, endogenous SNX9 of mouse macrophages (BMDM, Raw264.7) (mouse, UniProt Q91VH2 1-595).
T5 construct: also called SNC9
The assay is described as follows: anti-His co-IP from BMDM treated with 1 ug/ml rRv3364c, anti-SNX9 blot.

In assay [7] the target is T6, endogenous ZBTB46 of mouse macrophages (BMDM) (mouse, UniProt Q8BID6 1-600).
T6 sequence: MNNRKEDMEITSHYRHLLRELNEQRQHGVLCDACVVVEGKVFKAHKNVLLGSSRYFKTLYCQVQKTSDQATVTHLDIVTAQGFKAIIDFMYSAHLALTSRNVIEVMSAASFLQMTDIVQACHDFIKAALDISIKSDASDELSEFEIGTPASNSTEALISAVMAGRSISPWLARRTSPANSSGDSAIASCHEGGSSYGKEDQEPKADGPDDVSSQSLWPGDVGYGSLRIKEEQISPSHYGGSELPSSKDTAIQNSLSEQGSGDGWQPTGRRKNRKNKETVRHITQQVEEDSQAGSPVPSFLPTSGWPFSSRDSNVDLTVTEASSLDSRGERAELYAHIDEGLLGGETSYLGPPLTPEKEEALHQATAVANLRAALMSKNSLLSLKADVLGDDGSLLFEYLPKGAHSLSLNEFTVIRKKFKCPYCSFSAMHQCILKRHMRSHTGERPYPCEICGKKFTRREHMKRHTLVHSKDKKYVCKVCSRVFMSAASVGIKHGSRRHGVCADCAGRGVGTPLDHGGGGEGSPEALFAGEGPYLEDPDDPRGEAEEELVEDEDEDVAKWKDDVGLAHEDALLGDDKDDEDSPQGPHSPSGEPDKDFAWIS
Description: anti-His co-IP from BMDM treated with rRv3364c, anti-ZBTB46 blot.

Assay [8] has as its target YEATS4 (YEATS domain-containing protein 4), full-length recombinant human protein on the HuProt microarray (human, UniProt O95619 1-227). Description: HuProt human proteome microarray, biotinylated rRv3364c, streptavidin Alexa Fluor 532.
Assay [9] deals with T7, ZBTB46 (zinc finger and BTB domain-containing 46), full-length recombinant human protein on the HuProt … (human, UniProt Q86UZ6 1-589).
T7 sequence: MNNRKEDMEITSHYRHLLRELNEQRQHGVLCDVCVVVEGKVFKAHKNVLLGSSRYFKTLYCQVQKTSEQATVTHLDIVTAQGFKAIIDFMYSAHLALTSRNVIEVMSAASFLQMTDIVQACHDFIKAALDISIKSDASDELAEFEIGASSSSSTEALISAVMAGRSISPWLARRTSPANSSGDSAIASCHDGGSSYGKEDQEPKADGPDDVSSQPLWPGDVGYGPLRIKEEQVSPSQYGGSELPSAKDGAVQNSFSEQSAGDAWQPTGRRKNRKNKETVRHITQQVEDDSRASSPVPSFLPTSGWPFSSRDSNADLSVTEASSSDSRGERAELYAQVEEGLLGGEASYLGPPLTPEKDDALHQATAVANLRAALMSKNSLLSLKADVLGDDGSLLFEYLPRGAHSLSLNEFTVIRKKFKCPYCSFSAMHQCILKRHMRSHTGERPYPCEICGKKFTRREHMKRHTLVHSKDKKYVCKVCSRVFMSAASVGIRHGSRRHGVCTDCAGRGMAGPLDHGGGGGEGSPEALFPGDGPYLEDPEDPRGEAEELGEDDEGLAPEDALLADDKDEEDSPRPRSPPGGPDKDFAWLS
Described as above.

In assay [10] the target is SNX9 (sorting nexin 9), full-length recombinant human protein on the HuProt microarray (human, UniProt Q9Y5X1 1-595). The description is as above.
Chain of SNX9 (sorting nexin 9), full-length recombinant human protein on the HuProt microarray (Q9Y5X1 whole entry): as the sequence (Q9Y5X1 whole entry) above

We go through 5 molecules from patent US20230203107A1, “PEPTIDE FOR TREATING SEPSIS DERIVED FROM RV3364C PROTEIN OF MYCOBACTERIUM TUBERCULOSIS” (priority 2021, published 2023).

T1 sequence (Q9Y5X1 whole entry): as the sequence (Q9Y5X1 whole entry) above
T5 sequence (Q91VH2 whole entry): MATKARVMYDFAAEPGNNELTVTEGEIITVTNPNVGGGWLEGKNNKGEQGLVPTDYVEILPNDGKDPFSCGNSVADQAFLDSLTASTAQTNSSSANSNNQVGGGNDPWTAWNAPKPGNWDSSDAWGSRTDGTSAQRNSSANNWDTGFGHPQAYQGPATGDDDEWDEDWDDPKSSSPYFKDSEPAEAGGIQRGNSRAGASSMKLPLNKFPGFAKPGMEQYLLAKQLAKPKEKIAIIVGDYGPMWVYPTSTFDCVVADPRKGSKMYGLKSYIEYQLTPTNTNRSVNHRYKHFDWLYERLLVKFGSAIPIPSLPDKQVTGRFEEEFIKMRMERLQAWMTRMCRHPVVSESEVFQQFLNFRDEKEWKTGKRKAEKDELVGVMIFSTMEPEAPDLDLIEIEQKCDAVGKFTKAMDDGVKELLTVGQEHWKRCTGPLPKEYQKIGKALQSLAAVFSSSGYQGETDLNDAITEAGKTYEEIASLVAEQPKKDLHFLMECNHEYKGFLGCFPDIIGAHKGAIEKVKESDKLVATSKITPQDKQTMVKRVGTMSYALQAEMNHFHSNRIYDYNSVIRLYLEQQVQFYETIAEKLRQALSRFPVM
Chain of endogenous YEATS4 of mouse macrophages (BMDM, Raw264.7) (Q9CR11 whole entry): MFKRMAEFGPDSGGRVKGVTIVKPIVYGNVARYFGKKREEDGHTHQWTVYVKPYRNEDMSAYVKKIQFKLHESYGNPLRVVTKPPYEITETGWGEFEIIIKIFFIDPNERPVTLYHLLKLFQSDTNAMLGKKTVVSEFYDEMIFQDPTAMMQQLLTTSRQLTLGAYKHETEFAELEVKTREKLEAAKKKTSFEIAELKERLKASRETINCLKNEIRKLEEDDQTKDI
Chain of YEATS4 (YEATS domain-containing protein 4), full-length recombinant human protein on the HuProt microarray (O95619 whole entry, the tested form may be a part): as the sequence (Q9CR11 whole entry) above, with T224A counted along it
T2 sequence (O95619 whole entry): as the sequence (Q9CR11 whole entry) above, with T224A counted along it

Take “DWLVSKFARE [Tat-Rv3364c (11DWLVSKFARE20)]”: in [1] (293 cells with Myc-SNX9 and Flag-Rv3364c, peptide 5 μM, 12 hours), the “blocking of the interaction between SNX9 and Rv3364c” value is “block the interaction between SNX9 and Rv3364c”.

As to “MKARLPDSPL [Tat-Rv3364c (1MKARLPDSPL10)]”, the “blocking of the interaction between YEATS4 and Rv3364c” value in [2] was “block the interaction between YEATS4 and Rv3364c”.

Consider “Rv3364c: Rv3364c protein of Mycobacterium tuberculosis, expressed in 293T cells from a Flag-tagged plasmid”, for which the “interaction between SNX9 and p47phox” value in assay [3] is listed as “decreased as the amount of Rv3364c increased”.

In the case of WLVSKF (Rv3364c(12-17 aa)) [12WLVSKF17], in assay [1] (FIG. 5), the “region of Rv3364c required for interaction with SNX9” value was “minimum peptide essential for interaction with SNX9”.

B1: recombinant Rv3364c (rRv3364c) protein, N-terminal 6xHis tag (other)
chain: MKARLPDSPLDWLVSKFAREVPGVAHALLVSVDGLPVAASEHLPRERADQLAAVTSGLASLAGGAAQLFDGGQVLQSVVEMQNGYLLLMQVGDGSALAALAATGCDIGQIGYEMAILVERVGGVVQSCRR
notes: also called His-rRv3364c; not shown: N-terminal 6xHis tag from the pRSFDuet-1 vector
Turning to B1, the binding result in [4] is on record as “binds”; in assay [5], “no binding (tested: 1 ug/ml rRv3364c)”; in assay [6], “binds”; in assay [7] it was “no binding (tested: 1 ug/ml rRv3364c)”; in assay [8], “binds”; in assay [9], “binds”. Also, the binding result in assay [10] is “binds”.
